Test system: OVA-specific IgG
Assay: OVA-specific IgG by ELISA after single-dose immunization
Type: in vivo
Settings: SD rats, two weeks after injection, single dose (IM 500 μg OVA, MN 200 μg OVA)
Description: 4-week-old SD rats are divided into four groups. Rats of the first three groups are injected with saline, OVA, and chitosan hydrogel loaded with OVA by intramuscular inoculation, respectively. The fourth group is administrated with OVA through the microneedle patch of the present embodiment. In detail, the SD rat is weighed, anesthetized, and shaved. 200 μl of saline is injected into the thigh of each SD rat of the first group (“IM saline” group). 500 μg of OVA in the same volume are injected into the thigh of each SD rat of the second group (“IM-OVA” group). 200 μl of chitosan hydrogel loaded with 500 μg of OVA (mixed in the same ratio as the microneedle patch) are injected into the thigh of each SD rat of the third group (“IM-OVA+CS” group). A microneedle patch encapsulating 200 μg of OVA is applied the each SD rat of the fourth group (“MN-OVA” group). The blood of each SD rat of each group sampled at the 0, 2nd and 4th week after injection is centrifuged for 5 minutes at 3000 rpm to separate serum from blood cells in the plasma. IgG levels in the collected serum are then evaluated by ELISA.

B1: IM-OVA: 500 μg of OVA (ovalbumin) injected intramuscularly (protein, UniProt P01012 2-386, looked up)
Ovalbumin: GSIGAASMEFCFDVFKELKVHHANENIFYCPIAIMSALAMVYLGAKDSTRTQINKVVRFDKLPGFGDSIEAQCGTSVNVHSSLRDILNQITKPNDVYSFSLASRLYAEERYPILPEYLQCVKELYRGGLEPINFQTAADQARELINSWVESQTNGIIRNVLQPSSVDSQTAMVLVNAIVFKGLWEKAFKDEDTQAMPFRVTEQESKPVQMMYQIGLFRVASMASEKMKILELPFASGTMSMLVLLPDEVSGLEQLESIINFEKLTEWTSSNVMEERKIKVYLPRMKMEEKYNLTSVLMAMGITDVFSSSANLSGISSAESLKISQAVHAAHAEINEAGREVVGSAEAGVDAASVSEEFRADHPFLFCIKHIATNAVLFFGRCVSP
**Q.** For B1, which “OVA-specific IgG level” value is on record?
**A.** The value was “much lower than the MN-OVA and IM-OVA+CS group”.
